Experimental data reported in patent US20140193915, “COMPOSITIONS AND METHODS FOR CUSTOM SITE-SPECIFIC DNA RECOMBINASES” (Monsanto Technology, LLC, published 2014).
Residue numbers refer to the chain shown, from its start.

How the values were obtained:
Experiment in all cases: cell_activity; E. coli
[1] = biological target: T1, pN-TALER IV-14 (synthetic)
T1 chain: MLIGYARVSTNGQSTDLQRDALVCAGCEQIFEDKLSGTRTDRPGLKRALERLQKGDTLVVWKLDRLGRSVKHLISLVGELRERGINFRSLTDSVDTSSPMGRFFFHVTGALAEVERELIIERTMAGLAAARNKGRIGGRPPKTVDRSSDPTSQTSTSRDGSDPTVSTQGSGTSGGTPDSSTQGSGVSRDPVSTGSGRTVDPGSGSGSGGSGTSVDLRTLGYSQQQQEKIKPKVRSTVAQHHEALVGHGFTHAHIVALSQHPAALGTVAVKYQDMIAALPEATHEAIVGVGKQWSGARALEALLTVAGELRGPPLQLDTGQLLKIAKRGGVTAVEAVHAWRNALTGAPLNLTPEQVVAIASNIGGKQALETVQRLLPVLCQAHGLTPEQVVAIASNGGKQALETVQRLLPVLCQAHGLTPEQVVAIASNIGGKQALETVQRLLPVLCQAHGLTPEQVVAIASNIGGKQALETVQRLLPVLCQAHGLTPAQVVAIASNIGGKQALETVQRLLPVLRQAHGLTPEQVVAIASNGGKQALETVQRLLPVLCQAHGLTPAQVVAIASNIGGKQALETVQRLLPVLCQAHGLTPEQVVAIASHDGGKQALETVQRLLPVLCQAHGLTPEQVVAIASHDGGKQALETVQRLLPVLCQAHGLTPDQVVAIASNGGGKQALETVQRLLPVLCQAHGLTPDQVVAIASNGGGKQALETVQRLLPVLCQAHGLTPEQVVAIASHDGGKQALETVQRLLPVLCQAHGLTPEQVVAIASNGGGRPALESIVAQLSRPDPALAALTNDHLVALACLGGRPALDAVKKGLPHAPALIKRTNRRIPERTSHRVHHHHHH
Method: (§1) To test for recombination, E. coli DH5alpha cells were co-transformed with different combinations of TALER expression construct and TALER reporter construct pairs (Tables 6 and 7). The N-TALER expression and reporter constructs were in an approximate 1:1 mass ratio during the transformation. The co-transformed bacteria were plated on media with chloramphenicol, kanamycin, and X-gal then incubated at 37° C. for 18 to 36 hours. Control samples consisted of transformations using the reporter construct alone. Control transformants were similarly plated. The bacterial transformation protocol was either heat shock or electroporation per standard molecular biology techniques.
(§2) The N-TALER expression constructs representing the N-TALER chimeras with varying linker lengths were co-transformed with N-TALER reporter constructs with TALER central sequence lengths of 18, 20, 24, 30, 40, and 50 bp (Table 13). […] Recombination did occur, but was less efficient with the pN-TALER IV-14 (linker length of 71 amino acids) with each of the N-TALER reporters tested.

[2] = biological target: T2, sN-TALER IV-12 (synthetic)
T2 chain: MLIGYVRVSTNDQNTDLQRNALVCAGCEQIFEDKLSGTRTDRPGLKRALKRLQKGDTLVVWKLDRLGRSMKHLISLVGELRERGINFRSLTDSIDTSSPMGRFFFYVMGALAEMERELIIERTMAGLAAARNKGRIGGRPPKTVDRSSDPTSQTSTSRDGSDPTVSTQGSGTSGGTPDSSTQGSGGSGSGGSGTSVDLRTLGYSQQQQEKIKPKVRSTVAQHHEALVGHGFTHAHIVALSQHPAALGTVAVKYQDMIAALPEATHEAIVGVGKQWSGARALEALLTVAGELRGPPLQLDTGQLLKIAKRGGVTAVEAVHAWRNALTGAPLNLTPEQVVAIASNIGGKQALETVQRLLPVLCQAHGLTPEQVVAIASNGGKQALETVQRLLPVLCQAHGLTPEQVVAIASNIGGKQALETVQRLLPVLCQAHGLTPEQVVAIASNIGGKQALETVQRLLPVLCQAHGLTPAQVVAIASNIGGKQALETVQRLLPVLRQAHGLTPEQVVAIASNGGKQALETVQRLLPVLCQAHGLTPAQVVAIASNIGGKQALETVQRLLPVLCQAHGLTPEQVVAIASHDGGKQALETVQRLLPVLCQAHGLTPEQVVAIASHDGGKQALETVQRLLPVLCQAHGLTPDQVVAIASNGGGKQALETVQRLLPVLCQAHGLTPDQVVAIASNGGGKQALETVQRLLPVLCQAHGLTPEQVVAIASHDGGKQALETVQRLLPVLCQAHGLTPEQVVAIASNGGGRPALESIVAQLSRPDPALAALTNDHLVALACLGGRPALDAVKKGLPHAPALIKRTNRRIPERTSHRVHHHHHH
Method: as §1, §2

[3] = biological target: T3, pN-TALER IV-12 (synthetic)
T3 chain: T2 chain with V6A, D12G, N14S, N20D, K50E, M70V, I94V, Y106H, M108T, M114V
Method: as §1, §2

B1: Gin20TALE+0 (dsDNA)
DNA 1: AGAAGGTATTTATATCCAAAACCATGGTTTACAGTATAAATACCTTCT
DNA 2: AGAAGGTATTTATACTGTAAACCATGGTTTTGGATATAAATACCTTCT
With B1 as the binder, how does the activity [1] read?
Its activity is 3 score.

What about the activity [2] of the same binder?
Its activity is 1 score.

And the activity [3]?
The activity was 1 score.
